Source: publication PMC2212354

Key:
[1] = molecular target: CXCR3, stably expressed on HEK293 cells (human) (UniProt P49682); assay: radioligand binding
[2] = molecular target: CXCR3, stably expressed on HEK293 cells (human) (UniProt P49682)

Sequence of UniProt P49682 (P49682 whole entry): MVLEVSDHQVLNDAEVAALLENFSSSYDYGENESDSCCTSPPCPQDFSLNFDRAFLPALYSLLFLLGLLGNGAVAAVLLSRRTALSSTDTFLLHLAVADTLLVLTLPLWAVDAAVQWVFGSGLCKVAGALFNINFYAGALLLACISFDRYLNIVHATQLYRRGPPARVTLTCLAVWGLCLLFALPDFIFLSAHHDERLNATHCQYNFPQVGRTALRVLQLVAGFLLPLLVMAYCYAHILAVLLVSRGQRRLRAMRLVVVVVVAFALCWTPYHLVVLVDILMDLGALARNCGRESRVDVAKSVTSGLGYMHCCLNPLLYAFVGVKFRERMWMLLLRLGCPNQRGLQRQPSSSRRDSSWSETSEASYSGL

Q: For “125I-iodinated I-TAC (radiolabeled synthetic mature I-TAC) (from UniProt O14625 22-94) (ligand)”, which radiolabeled I-TAC bound (cpm) [1] is on record?
A: Its radiolabeled I-TAC bound (cpm) is 5980 cpm.

Q: “IFN-γ–induced human monokine (HuMig), recombinant, unlabeled (from UniProt Q07325 23-125) (ligand)” was tested. Which IC50 [1] did it give?
A: Its IC50 is 300 nM.

Q: And the EC50 of intracellular calcium mobilization in 300-19 CXCR3 transfectants [2]?
A: Its EC50 of intracellular calcium mobilization in 300-19 CXCR3 transfectants is 50 nM.

Q: And the intracellular calcium mobilized in 300-19 CXCR3 transfectants (maximum) [2]?
A: Its intracellular calcium mobilized in 300-19 CXCR3 transfectants (maximum) is 1000 nM.

Q: What does the source list for “IFN-γ–inducible 10-kD protein (IP-10), recombinant, unlabeled (from UniProt P02778 22-98) (ligand)”?
A: IC50 [1]: 70 nM; EC50 of intracellular calcium mobilization in 300-19 CXCR3 transfectants [2]: 10 nM; intracellular calcium mobilized in 300-19 CXCR3 transfectants (maximum) [2]: 1000 nM

Q: Which results are given for “I-TAC (interferon-inducible T cell alpha chemoattractant), chemically synthesized predicted mature polypeptide, unlabeled (from UniProt O14625 22-94) (ligand)”?
A: IC50 [1]: 1 nM; KD, high affinity site (Scatchard) [1]: 0.3 nM; KD, low affinity site (Scatchard) [1]: 36 nM; EC50 of intracellular calcium mobilization in 300-19 CXCR3 transfectants [2]: 1 nM
